Test results from the supplement of paper PMC5998384.

Assays:
HeLa Kyoto [1] = experiment: solubility change mitosis vs G1/S (difference of NP-40 vs SDS log2 ratios) (log2 ratio difference); higher = more soluble in mitosis
HeLa Kyoto [2] = experiment: solubility in G1/S (NP-40 vs SDS abundance) (log2 ratio); higher = more soluble; conditions: cell cycle stage: G1/S
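For solubility change mitosis vs G1/S (difference of NP-40 vs SDS log2 ratios) in this document: synchronized HeLa Kyoto cells (double thymidine block for G1/S, nocodazole release for mitosis), protein amounts in NP-40 versus SDS lysates quantified by mass spectrometry, three biological replicates.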
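For solubility in G1/S (NP-40 vs SDS abundance) in this document: HeLa Kyoto cells arrested at G1/S by double thymidine block, proteins quantified by TMT10plex mass spectrometry in mild NP-40 versus SDS extracts, three biological replicates.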

Sequence | solubility change mitosis (log2) (HeLa Kyoto [1]) | solubility in G1/S (log2) (HeLa Kyoto [2])
MAGPQMGGSAEDHPPRKRHAAEKQKKKTVIYTKCFEFESATQRPIDRQRYDENEDLSDVEEIVSVRGFSLEEKLRSQLYQGDFVHAMEGKDFNYEYVQREALRVPLIFREKDGLGIKMPDPDFTVRDVKLLVGSRRLVDVMDVNTQKGTEMSMSQFVRYYETPEAQRDKLYNVISLEFSHTKLEHLVKRPTVVDLVDWVDNMWPQHLKEKQTEATNAIAEMKYPKVKKYCLMSVKGCFTDFHIDFGGTSVWYHVFRGGKIFWLIPPTLHNLALYEEWVLSGKQSDIFLGDRVERCQRIELKQGYTFFIPSGWIHAVYTPVDSLVFGGNILHSFNVPMQLRIYEIEDRTRVQPKFRYPFYYEMCWYVLERYVYCVTQRSHLTQEYQRESMLIDAPRKPSIDGFSSDSWLEMEEEACDQQPQEEEEKDEEGEGRDRAPKPPTDGSTSPTSTPSEDQEALGKKPKAPALRFLKRTLSNESEESVKSTTLAVDYPKTPTGSPATEVSAKWTHLTEFELKGLKALVEKLESLPENKKCVPEGIEDPQALLEGVKNVLKEHADDDPSLAITGVPVVTWPKKTPKNRAVGRPKGKLGPASAVKLAANRTTAGARRRRTRCRKCEACLRTECGECHFCKDMKKFGGPGRMKQSCIMRQCIAPVLPHTAVCLVCGEAGKEDTVEEEEGKFNLMLMECSICNEIIHPGCLKIKESEGVVNDELPNCWECPKCNHAGKTGKQKRGPGFKYASNLPGSLLKEQKMNRDNKEGQEPAKRRSECEEAPRRRSDEHSKKVPPDGLLRRKSDDVHLRKKRKYEKPQELSGRKRASSLQTSPGSSSHLSPRPPLGSSLSPWWRSSLTYFQQQLKPGKEDKLFRKKRRSWKNAEDRMALANKPLRRFKQEPEDELPEAPPKTRESDHSRSSSPTAGPSTEGAEGPEEKKKVKMRRKRRLPNKELSRELSKELNHEIQRTENSLANENQQPIKSEPESEGEEPKRPPGICERPHRFSKGLNGTPRELRHQLGPSLRSPPRVISRPPPSVSPPKCIQMERHVIRPPPISPPPDSLPLDDGAAHVMHREVWMAVFSYLSHQDLCVCMRVCRTWNRWCCDKRLWTRIDLNHCKSITPLMLSGIIRRQPVSLDLSWTNISKKQLSWLINRLPGLRDLVLSGCSWIAVSALCSSSCPLLRTLDVQWVEGLKDAQMRDLLSPPTDNRPGQMDNRSKLRNIVELRLAGLDITDASLRLIIRHMPLLSKLHLSYCNHVTDQSINLLTAVGTTTRDSLTEINLSDCNKVTDQCLSFFKRCGNICHIDLRYCKQVTKEGCEQFIAEMSVSVQFGQVEEKLLQKLS [KDM2B] | 0.226 | -0.295
MAGWWPALSRAARRHPWPTNVLLYGSLVSAGDALQQRLQGREANWRQTRRVATLVVTFHANFNYVWLRLLERALPGRAPHALLAKLLCDQVVGAPIAVSAFYVGMSILQGKDDIFLDLKQKFWNTYLSGLMYWPFVQLTNFSLVPVQWRTAYAGVCGFLWATFICFSQQSGDGTFKSAFTILYTKGTSATEGYPKK [MPV17L] | -0.192 | -0.145
MAKPAATAAAASEELSQVPDEELLRWSKEELARRLRRAEGEKVGLMLEHGGLMRDVNRRLQQHLLEIRGLKDVNQRLQDDNQELRELCCFLDDDRQKGRKLAREWQRFGRHAAGAVWHEVARSQQKLRELEARQEALLRENLELKELVLLLDEERAALAATGAASGGGGGGGGAGSRSSIDSQASLSGPLSGGAPGAGARDVGDGSSTSSAGSGGSPDHHHHVPPPLLPPGPHKAPDGKAGATRRSLDDLSAPPHHRSIPNGLHDPSSTYIRQLESKVRLLEGDKLLAQQAGSGEFRTLRKGFSPYHSESQLASLPPSYQDSLQNGPACPAPELPSPPSAGYSPAGQKPEAVVHAMKVLEVHENLDRQLQDSCEEDLSEKEKAIVREMCNVVWRKLGDAASSKPSIRQHLSGNQFKGPL [CCDC85C] | 0.214 | 0.216
MAKRRAAEPVTFHVPWKRLLLCDFAEQPPPPPLWIRPPGVAHAGQLLGVPEQHRKRKIDAGTMAEPSASPSKRRDSGDNSAPSGQEREDHGLETGDPPLPPPPVLPGPGEELPGARLPGGGGDDGAGRAGPPRGDWGVASRQHNEEFWQYNTFQYWRNPLPPIDLADIEDLSEDTLTEATLQGRNEGAEVDMES [C9ORF40] | -0.227 | 0.182
MAKSNGENGPRAPAAGESLSGTRESLAQGPDAATTDELSSLGSDSEANGFAERRIDKFGFIVGSQGAEGALEEVPLEVLRQRESKWLDMLNNWDKWMAKKHKKIRLRCQKGIPPSLRGRAWQYLSGGKVKLQQNPGKFDELDMSPGDPKWLDVIERDLHRQFPFHEMFVSRGGHGQQDLFRVLKAYTLYRPEEGYCQAQAPIAAVLLMHMPAEQAFWCLVQICEKYLPGYYSEKLEAIQLDGEILFSLLQKVSPVAHKHLSRQKIDPLLYMTEWFMCAFSRTLPWSSVLRVWDMFFCEGVKIIFRVGLVLLKHALGSPEKVKACQGQYETIERLRSLSPKIMQEAFLVQEVVELPVTERQIEREHLIQLRRWQETRGELQCRSPPRLHGAKAILDAEPGPRPALQPSPSIRLPLDAPLPGSKAKPKPPKQAQKEQRKQMKGRGQLEKPPAPNQAMVVAAAGDACPPQHVPPKDSAPKDSAPQDLAPQVSAHHRSQESLTSQESEDTYL [TBC1D10A] | -0.147 | 0.438
MALEGMSKRKRKRSVQEGENPDDGVRGSPPEDYRLGQVASSLFRGEHHSRGGTGRLASLFSSLEPQIQPVYVPVPKQTIKKTKRNEEEESTSQIERPLSQEPAKKVKAKKKHTNAEKKLADRESALASADLEEEIHQKQGQKRKNSQPGVKVADRKILDDTEDTVVSQRKKIQINQEEERLKNERTVFVGNLPVTCNKKKLKSFFKEYGQIESVRFRSLIPAEGTLSKKLAAIKRKIHPDQKNINAYVVFKEESAATQALKRNGAQIADGFRIRVDLASETSSRDKRSVFVGNLPYKVEESAIEKHFLDCGSIMAVRIVRDKMTGIGKGFGYVLFENTDSVHLALKLNNSELMGRKLRVMRSVNKEKFKQQNSNPRLKNVSKPKQGLNFTSKTAEGHPKSLFIGEKAVLLKTKKKGQKKSGRPKKQRKQK [RBM34] | 1.46 | -2.26
MALKGRALYDFHSENKEEISIQQDEDLVIFSETSLDGWLQGQNSRGETGLFPASYVEIVRSGISTNHADYSSSPAGSPGAQVSLYNSPSVASPARSGGGSGFLSNQGSFEEDDDDDWDDWDDGCTVVEEPRAGGLGTNGHPPLNLSYPGAYPSQHMAFRPKPPLERQDSLASAKRGSVVGRNLNRFSCFVRSGVEAFILGDVPMMAKIAETYSIEMGPRGPQWKANPHPFACSVEDPTKQTKFKGIKSYISYKLTPTHAASPVYRRYKHFDWLYNRLLHKFTVISVPHLPEKQATGRFEEDFIEKRKRRLILWMDHMTSHPVLSQYEGFQHFLSCLDDKQWKMGKRRAEKDEMVGASFLLTFQIPTEHQDLQDVEDRVDTFKAFSKKMDDSVLQLSTVASELVRKHVGGFRKEFQKLGSAFQAISHSFQMDPPFCSEALNSAISHTGRTYEAIGEMFAEQPKNDLFQMLDTLSLYQGLLSNFPDIIHLQKGAFAKVKESQRMSDEGRMVQDEADGIRRRCRVVGFALQAEMNHFHQRRELDFKHMMQNYLRQQILFYQRVGQQLEKTLRMYDNL [SNX33] | -0.033 | -0.337
MALMQELYSTPASRLDSFVAQWLQPHREWKEEVLDAVRTVEEFLRQEHFQGKRGLDQDVRVLKVVKVGSFGNGTVLRSTREVELVAFLSCFHSFQEAAKHHKDVLRLIWKTMWQSQDLLDLGLEDLRMEQRVPDALVFTIQTRGTAEPITVTIVPAYRALGPSLPNSQPPPEVYVSLIKACGGPGNFCPSFSELQRNFVKHRPTKLKSLLRLVKHWYQQYVKARSPRANLPPLYALELLTIYAWEMGTEEDENFMLDEGFTTVMDLLLEYEVICIYWTKYYTLHNAIIEDCVRKQLKKERPIILDPADPTLNVAEGYRWDIVAQRASQCLKQDCCYDNRENPISSWNVKRARDIHLTVEQRGYPDFNLIVNPYEPIRKVKEKIRRTRGYSGLQRLSFQVPGSERQLLSSRCSLAKYGIFSHTHIYLLETIPSEIQVFVKNPDGGSYAYAINPNSFILGLKQQIEDQQGLPKKQQQLEFQGQVLQDWLGLGIYGIQDSDTLILSKKKGEALFPAS [OASL] | 0.156 | -0.811
